Measurements from publication PMC3239189 (Nucleic Acids Research, 2011).

Legend:
AUC = molecular target: the molecule itself; experiment: AUC
LHK-Exo = molecular target: T1, LHK-Exo (Laribacter hongkongensis HLHK9, UniProt C1D7P6 1-203); experiment: X-ray crystallography
T1 sequence: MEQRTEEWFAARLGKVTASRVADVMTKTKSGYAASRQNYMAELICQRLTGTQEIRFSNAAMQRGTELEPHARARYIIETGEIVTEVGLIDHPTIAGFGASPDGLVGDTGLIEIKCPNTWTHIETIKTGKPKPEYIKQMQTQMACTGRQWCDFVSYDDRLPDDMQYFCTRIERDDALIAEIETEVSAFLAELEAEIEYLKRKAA

| Binder | stoichiometry N (AUC) | binding result (LHK-Exo) |
| --- | --- | --- |
| LHK-Exo (alkaline exonuclease from Laribacter hongkongensis HLHK9, LHK_01497) (enzyme, UniProt C1D7P6 1-203, looked up) MEQRTEEWFAARLGKVTASRVADVMTKTKSGYAASRQNYMAELICQRLTGTQEIRFSNAAMQRGTELEPHARARYIIETGEIVTEVGLIDHPTIAGFGASPDGLVGDTGLIEIKCPNTWTHIETIKTGKPKPEYIKQMQTQMACTGRQWCDFVSYDDRLPDDMQYFCTRIERDDALIAEIETEVSAFLAELEAEIEYLKRKAA | 3 | – |
| TTTTT (ssDNA, 5'-phosphate) [5'-PO4-(dT)5] | – | binds |
